Values quoted from earlier work in US20230250195A1, “Methods for Reducing Infusion-Related Reactions in Patients Treated with EGFR/Met Bispecific Antibodies” (Janssen Biotech, Inc., priority 2022, published 2023).

Details: 302 patients with locally advanced or metastatic NSCLC; IV amivantamab at recommended Phase 2 dose (RP2D) as a single agent

amivantamab: IgG1 anti-EGFR/c-Met bispecific antibody described in U.S. Pat. No. 9,593,164
incidence of infusion-related reactions (IRRs): 66%
